Laboratory results published in paper PMC2868174.

Molecular target: ERK2 (UniProt P63086)
Experiment: steady-state kinetics, forward and reverse reaction
Details: reference: unphosphorylated Ets; sites T38

## Ets-1 (Ets; residues 1–138) 1-138 (from UniProt P27577) p-Ets (ERK2-phosphorylated, Mono-Q purified)
  other: Km: same; reference 18.0 ± 2.0
